Data reported in patent publication EP0866075B1, “Method to treat microbial infections by uncoupling of phosphotransferase system and appropriate agents therefor” (Arpida AG,, priority 1997, dated 1998).

Target: enzyme I (phosphoenolpyruvate-protein phosphotransferase, EC 2.7.3.9) of the E. coli phosphotransferase system (E. coli), P08839
Test: cell-based or functional assay

B1: peptide 17 … (peptide)
peptide: SSLRGHRWVY
modifications: not checked
  inhibition IC50: 120 µM
  uncoupling Pi/peptide (x IC50/h) (Pi/peptide (x IC50/h)): 50.3
